In the nanobody polyreactivity screen of Harvey et al. (2022):

Assay: yeast display, Sf9 membrane polyspecificity reagent, FACS + sequencing; frameworks hold sequencing errors
How it was run: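 Polyreactivity labels are assigned by the sorting gate from which each nanobody was recovered. The gates were low and high (top ~1%), set on anti-HA fluorescence for expression and streptavidin fluorescence for reagent binding. Before sorting, galactose-induced (36–48 hours) yeast display cells were stained for 1 hour at 4 °C with 10% biotinylated, detergent-solubilized Sf9 membrane reagent.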

Row | Sequence | polyreactivity (PSR sort gate)
1 | QVQLVESGGGLVQAGGSLRLSCAASGLIFKSYAMGWYRQAPGKERELVAAITWSGGRTYYADSVKGRFTISRDNAKNTVYLQMNSLKPEDTAVYYCAGREYLPPYYYWGQGTQVTVSS | high polyreactivity
2 | QVQLVESGGGLVQAGGSLRLSCAASGLIFKYYAMGWYRPAPGKERELVAAITGRGGSTYYADSVKGRFTISRDNAMNTVYLQMNSLKPEDTAVYYCARRRTYSFNPVTYDWGQGTQVTVSS | high polyreactivity
3 | QVQLVESGGGLVQAGGSLRLSCAASGLIFLGYAMGWYRQAPGKERELVASIRTGGSTSYADSVKGRFTISRDNAKNTVYLQMNSLKPEDTAVYYCNARDYASGTEGDYWGQGTQVTVSS | low polyreactivity
4 | QVQLVESGGGLVQAGGSLRLSCAASGLIFLYNAMGWYRQAPGKERELVAAISRSGGSTYYADSVKGRFTISRDNAKNTVYLQMNSLKPEDTAVYYCNARWPLGVSRGGMGYWGQGTQVTVSS | high polyreactivity
5 | QVQLVESGGGLVQAGGSLRLSCAASGLIFNEYAMGWYRQAPGKERELVAAISWSDGGTSYADSVKGRFTISRDNAKNTVYLQMNSLKPEDTAVYYCAKGPRGAHRTHGAYVEMEYWGQGTQVTVSS | low polyreactivity
6 | QVQLVESGGGLVQAGGSLRLSCAASGLIFNKNSMGWYRQAPGKERELVASNTTTGARTYYADSVKGRFTISRDNAKNTVYLQMNSLKPEDTAFYYCASVHWGWRSITGGVGYDSWGQGTQVTVSS | high polyreactivity
7 | QVQLVESGGGLVQAGGSLRLSCAASGLIFNNNAMGWYRQAPGKERELVAAISYRGGSTYYADSVKGRFTISRDNAKNTVYLQMNSLKPEDTAVYYCAARKISKYDYWGQGTQVTVSS | high polyreactivity
8 | QVQLVESGGGLVQAGGSLRLSCAASGLIFNRYTMGWYRQAPGKERELVAAINRSGGNTYYADSVKGRFTISRDNAKNTVYLQMNSLKPEDTAVYYCNADYFSRTGYKYDYWGQGTQVTVSS | high polyreactivity
9 | QVQLVESGGGLVQAGGSLRLSCAASGLIFNVNVMGWYRQAPGKERELVAAIDYSGGSTYYADSVKGRFTISRDNAKNTVFLQMNSLKPEDTAVYYCSADDAAWPYSWWGFDYWGQGTQVTVSS | low polyreactivity
10 | QVQLVESGGGLVQAGGSLRLSCAASGLIFPLYAMGWYRHAPGKERELVAAITSSGGSTYYADSVKGRFTISRDNAKNTVYLQMNSLKPEDTAVYYCAADYSVYWLDYGYWGQGTQVTVSS | low polyreactivity
11 | QVQLVESGGGLVQAGGSLRLSCAASGLIFPRNAMGWYRQAPGKERELVAAITSGGGTNYADSVKWRFTISRDNAKNTVYLQMNSLIPEDTAVYYCAADYSVASPDGPYVIYDYWGQGTQVTVSS | low polyreactivity
12 | QVQLVESGGGLVQAGGSLRLSCAASGLIFPWNAMGWYRQAPGKERELVAAINGRDGSTYYADSVKGLFTISRDNAKNTVYLQMNSLKPEDTAVYYCAKGPSGVRTYREYDSWGQGPQVTVSS | low polyreactivity
13 | QVQLVESGGGLVQAGGSLRLSCAASGLIFPYYAMGWYRQAPGKERELVAAISRSGDSTYYADSVKGRFTISRDNAKITVYLQMNSLKPEDTAFYYCAAVLSYSYVRYNYWGQGTQVNVSS | high polyreactivity
14 | QVQLVESGGGLVQAGGSLRLSCAASGLIFQVYDMGWYRQAPGKERELVAAISSGSNTNYADSVKGRFTISRDNAKNTVYLQMNSLKPEDTAVYYCAASWGYGALTPDMGYWGQGTQVTVSS | low polyreactivity
15 | QVQLVESGGGLVQAGGSLRLSCAASGLIFQWYAMGWYRQAPGKERELVAAITGSGGSTYYADSVKGRFTISRDNAKNTVYLQMNSLKPEDTAVYYCNAGASRRYGYWGQGTQVTVSS | high polyreactivity
16 | QVQLVESGGGLVQAGGSLRLSCAASGLIFRAYAMGWYRQAPGKERELVAAITRSGGRTYYADSVKGRFTISRDNAKNTVYLQMNSLTPEDTAVYYCAAEYGNTYSSYTYDYWGQGTQVTVSS | high polyreactivity
17 | QVQLVESGGGLVQAGGSLRLSCAASGLIFRAYAMGWYRQAPGKETELVAAITWNGGSTNYADSVKGRFTISRDNAKNTVYLQMHSLKPEDTAVYYCAAGSSRVFRKAGITRPSGLYYYWGQGTQVTVSS | high polyreactivity
18 | QVQLVESGGGLVQAGGSLRLSCAASGLIFRAYGMGWYIQAPGKERELLAAITWNGGSTNYADSVKGRFTISRDNAKNTVYLQMNSLKPEDTAVYYCAARLAGRGSSSSRVVRTGGYWGQGTQVTVSS | high polyreactivity
19 | QVQLVESGGGLVQAGGSLRLSCAASGLIFRDNTMGWYRQAPGKERELVAAINSGGGTSYADSVKGRFTISRDNAKNTVYLQMNSLKPEDTAVYYCAAAWWPYRYGTYYSQYDYWGQGTQVTVSS | low polyreactivity
20 | QVQLVESGGGLVQAGGSLRLSCAASGLIFRLYAMGWYRQAPGKERELVAAISGGGGSTYYADSVKGRFTISRDNAKNTVYLQMNSLKPEDTAVYYCAATYSRGYWWSEYDYWGQGTQVTVSS | low polyreactivity
21 | QVQLVESGGGLVQAGGSLRLSCAASGLIFRLYAMGWYRQAPGKERELVAAISVSGAITYYADSVKGRFTISRDNAKNTVYLLMNSLKPEDTAVYYCNAQAVFRRDGYVYWDVDYWGQGTQVTVSS | low polyreactivity
22 | QVQLVESGGGLVQAGGSLRLSCAASGLIFRPYAMGWYRQAPGKERELVAGINSGGNTDYADTVKGRFTISRDNAKNTVYLQMNSLKPEDTAVYYCNREYQVTIYDYWGQGSQVTVSS | low polyreactivity

Row | Sequence | polyreactivity (PSR sort gate)
23 | QVQLVESGGGLVQAGGSLRLSCAASGLIFRRNAMGWYRQAPGKERELVAAISRSSGSTYYADSVKGRFTISRDNAKNTVYLQMNSLKPEDTAVYYCAVHVWGTYGSWEYYYWGQGTQVTVSS | high polyreactivity
24 | QVQLVESGGGLVQAGGSLRLSCAASGLIFRSYAMGWYRQAPGKERELVARISIRGGSTYYADSVKGRFTISRDNAKYTVYLQMNSLKPEDTAVYYCGAVGYFGGFRYDYWGQGTQVTVSS | high polyreactivity
25 | QVQLVESGGGLVQAGGSLRLSCAASGLIFRTYTMGWYRQAPGKERELVAAISASGGRTYYADSVKGRFTISRDTAKNTVYLQMNRLKPEDTAVNYFNARVNYKGYDSWGQGTQVTVSS | high polyreactivity
26 | QVQLVESGGGLVQAGGSLRLSCAASGLIFRTYTMGWYRQAPGKERELVATITRRGGTTYYADSVKGRFTISRDNAKNTVYLQMKSLKPEDTAVYYCAKSPYYTWKYDYWGQGTQVTVSS | high polyreactivity
27 | QVQLVESGGGLVQAGGSLRLSCAASGLIFRYYAMGWYRQAPGKERELVAAISSSGTRTYYADSVKGRFTISRDNAKNTVYLQMNSLKPEDTSVYYCATENQNPTGGYWGQGTQVTVSS | high polyreactivity
28 | QVQLVESGGGLVQAGGSLRLSCAASGLIFSGSAMGWYRQAPGKERELVAAITWSGGSTYYADSVKGRFTISRDNAKNSVYLQMNSQKPEDTAVYYCNAKFYQISRYGYWGQGTQVTVSS | high polyreactivity
29 | QVQLVESGGGLVQAGGSLRLSCAASGLIFSLNAMGWYRHATGKERELVAAISSDDSTYYADSVKGRFTISRDNAKNNVYLQMNSLTPEDTAVYYCAAVQLVPGYVDSNDYYWGQGTQVTVSS | low polyreactivity
30 | QVQLVESGGGLVQAGGSLRLSCAASGLIFSRYAMGWYRQAPGKEREFVAAINWNGGRTYYADSVKGRFTISRDNAKNTVYLQMNSLKPEDTAVYYCAATWIDYYVIYAYDYWGQGTQVTVSS | high polyreactivity
31 | QVQLVESGGGLVQAGGSLRLSCAASGLIFSRYAMGWYRQGPGKERELVAASSGGGGSTYYADSVKGRFTISRDNAKNTVYLQMNSLKPEDTAVYYSARKYTRKIPASDYWGQGTQVTVSS | high polyreactivity
32 | QVQLVESGGGLVQAGGSLRLSCAASGLIFSVYAMGWYRQAPGKERELVAAISWSGSTYYADSVKGRFTISRDNAKNTVYLQMNSLKPEDTAVYYCAAEYDYDHFYWMDYWGQGTQVTVSS | high polyreactivity
33 | QVQLVESGGGLVQAGGSLRLSCAASGLIFSWYAMGWYRQAPGKEREFVAGISKGGDSTYYADSVKGRFTISRDNAKNTVYLQMNSLKPEDTAVYYCAADWWQGTSHYWGGAYNYWGQGTQVTVSS | low polyreactivity
34 | QVQLVESGGGLVQAGGSLRLSCAASGLIFSYNAMGWYRPATGNERELVATIRRVGSTNYADSVKGRFTISRDNAKITVYLQMNSLKPEDTAVYYCAARSLRYGRGMYYWGQGTQVTVSS | high polyreactivity
35 | QVQLVESGGGLVQAGGSLRLSCAASGLIFSYYVMGWYRQAHGKERELVAAISRRGGSTYYADSVKGRFTISRDNAKNTVYLQMNSLKPEDTAVYYCNAQRNFKSITEYDYWGQGTQVTVSS | high polyreactivity
36 | QVQLVESGGGLVQAGGSLRLSCAASGLIFSYYVMGWYRQAPGKERELVAAISRIGGSTYYADSVKGRFTISRDNAKNTVYLQMNSLKPEDTAVYYCAAYDLSPGSLTGGYYWGQGTQVTVSS | high polyreactivity
37 | QVQLVESGGGLVQAGGSLRLSCAASGLIFTPYAMGWYRQAPGKESELVAAISSSGGTTYYADSVKGRFTISRDNAKNTVYLQMKSLKPEDTAVYYCAADTGYPGYYPEYYWGQGTQVTVSS | high polyreactivity
38 | QVQLVESGGGLVQAGGSLRLSCAASGLIFTRNAMGWYRQAPGKERELVASISNSGGSTYYADSVKGRFTISRDNAKNTVYLQMNSLKPEDTAVYYCAAPTHLHGHGNQNEFYYWGQGTQVTVSS | low polyreactivity
39 | QVQLVESGGGLVQAGGSLRLSCAASGLIFTRNAMGWYRQAPGKERELVATITWSGGRTYYADSVKGRFTISRDNAKNTVYLQMNSLKPEDTAVYYCAAASGPLTYTFFRNDYWGQGTQVTVSS | low polyreactivity
40 | QVQLVESGGGLVQAGGSLRLSCAASGLIFTSYPMGWDRQAPGKERELVAAIDTSGGSTYYADSVKGRFTISRDNAKNTVYLQMNSLKPEDTAVYYCAATSTYRSYLEYDYWGQGTQVTVSS | low polyreactivity
41 | QVQLVESGGGLVQAGGSLRLSCAASGLIFTTNAMGWSRPAPGTEREFVAAISPSGGSTYYADSVKGRFTISRDNAKNTVYLQMNSLKPEDTAVYYCAARYSPVWHKYYYWGQGTQVTVSS | high polyreactivity
42 | QVQLVESGGGLVQAGGSLRLSCAASGLIFTTNAMGWYRQAPGKEREFVAAISPSGGSTYYADSVKGRFTISRDNAKNTVYLQMNSLKPEDTAVYYCAAAGWSARGYNYWGQGTQVTVSS | high polyreactivity
43 | QVQLVESGGGLVQAGGSLRLSCAASGLIFTTYDMGWYRQAPGKERELVAAISASSDTTYYADSVKGRFTISRDNAKNTVYLQMNSLKPEDTAVYYCAADRFDFPTATGSNYWGQGTQVTVSS | low polyreactivity
